{
  "source": "patent US20210115124A1",
  "about": "(Genentech, published 2021)",
  "binders": {"B1": {"name": "G6.31 HC-A60E (Fab, name in Kabat numbering, V domains shown)", "VH": "EVQLVESGGGLVQPGGSLRLSCAASGFTISDYWIHWVRQAPGKGLEWVAGITPAGGYTYYEDSVKGRFTISADTSKNTAYLQMNSLRAEDTAVYYCARFVFFLPYAMDYWGQGTLVTVSS", "VL": "DIQMTQSPSSLSASVGDRVTITCRASQDVSTAVAWYQQKPGKAPKLLIYSASFLYSGVPSRFSGSGSGTDFTLTISSLQPEDFATYYCQQGYGNPFTFGQGTKVEIK", "notes": "Fab"}, "B2": {"name": "G6.31 HC-A71E (Fab, name in Kabat numbering, V domains shown)", "VH": "B1 VH with E61A, A72E", "VL": "B1 VL", "notes": "Fab"}, "B3": {"name": "G6.31 LC-Q27E (Fab, V domains shown)", "VH": "B1 VH with E61A", "VL": "B1 VL with Q27E", "notes": "Fab"}, "B4": {"name": "G6.31 HC-P41R (Fab, name in Kabat numbering, V domains shown)", "VH": "B1 VH with P41R, E61A", "VL": "B1 VL", "notes": "Fab"}, "B5": {"name": "G6.31 HC-T77K (Fab, name in Kabat numbering, V domains shown)", "VH": "B1 VH with E61A, T78K", "VL": "B1 VL", "notes": "Fab"}, "B6": {"name": "G6.31 LC-S77E (Fab, V domains shown)", "VH": "B1 VH with E61A", "VL": "B1 VL with S77E", "notes": "Fab"}, "B7": {"name": "G6.31 HC-K64E (Fab, name in Kabat numbering, V domains shown)", "VH": "B1 VH with E61A, K65E", "VL": "B1 VL", "notes": "Fab"}, "B8": {"name": "G6.31 LC-G57E (Fab, V domains shown)", "VH": "B1 VH with E61A", "VL": "B1 VL with G57E", "notes": "Fab"}, "B9": {"name": "G6.31 HC-S30E (Fab, name in Kabat numbering, V domains shown)", "VH": "B1 VH with S30E, E61A", "VL": "B1 VL", "notes": "Fab"}, "B10": {"name": "G6.31 HC-T68E (Fab, name in Kabat numbering, V domains shown)", "VH": "B1 VH with E61A, T69E", "VL": "B1 VL", "notes": "Fab"}, "B11": {"name": "G6.31 HC-K75E (Fab, name in Kabat numbering, V domains shown)", "VH": "B1 VH with E61A, K76E", "VL": "B1 VL", "notes": "Fab"}, "B12": {"name": "G6.31 LC-S50R (Fab, V domains shown)", "VH": "B1 VH with E61A", "VL": "B1 VL with S50R", "notes": "Fab"}, "B13": {"name": "G6.31 HC-K43E (Fab, name in Kabat numbering, V domains shown)", "VH": "B1 VH with K43E, E61A", "VL": "B1 VL", "notes": "Fab"}, "B14": {"name": "G6.31 HC-Y56K (Fab, name in Kabat numbering, V domains shown)", "VH": "B1 VH with Y57K, E61A", "VL": "B1 VL", "notes": "Fab"}, "B15": {"name": "G6.31 LC-T31R (Fab, V domains shown)", "VH": "B1 VH with E61A", "VL": "B1 VL with T31R", "notes": "Fab"}, "B16": {"name": "G6.31 HC-T28K (Fab, name in Kabat numbering, V domains shown)", "VH": "B1 VH with T28K, E61A", "VL": "B1 VL", "notes": "Fab"}, "B17": {"name": "G6.31 HC-T77E (Fab, name in Kabat numbering, V domains shown)", "VH": "B1 VH with E61A, T78E", "VL": "B1 VL", "notes": "Fab"}, "B18": {"name": "G6.31 LC-T72R (Fab, V domains shown)", "VH": "B1 VH with E61A", "VL": "B1 VL with T72R", "notes": "Fab"}, "B19": {"name": "G6.31 HC-Q81E (Fab, name in Kabat numbering, V domains shown)", "VH": "B1 VH with E61A, Q82E", "VL": "B1 VL", "notes": "Fab"}, "B20": {"name": "G6.31 LC-P40E (Fab, V domains shown)", "VH": "B1 VH with E61A", "VL": "B1 VL with P40E", "notes": "Fab"}, "B21": {"name": "G6.31 HC-G65E (Fab, name in Kabat numbering, V domains shown)", "VH": "B1 VH with E61A, G66E", "VL": "B1 VL", "notes": "Fab"}, "B22": {"name": "G6.31 HC-N76E (Fab, name in Kabat numbering, V domains shown)", "VH": "B1 VH with E61A, N77E", "VL": "B1 VL", "notes": "Fab"}, "B23": {"name": "G6.31 HC-T73E (Fab, name in Kabat numbering, V domains shown)", "VH": "B1 VH with E61A, T74E", "VL": "B1 VL", "notes": "Fab"}, "B24": {"name": "G6.31 HC-T28E (Fab, name in Kabat numbering, V domains shown)", "VH": "B1 VH with T28E, E61A", "VL": "B1 VL", "notes": "Fab"}, "B25": {"name": "G6.31 HC-T68K (Fab, name in Kabat numbering, V domains shown)", "VH": "B1 VH with E61A, T69K", "VL": "B1 VL", "notes": "Fab"}, "B26": {"name": "G6.31 LC-A51E (Fab, V domains shown)", "VH": "B1 VH with E61A", "VL": "B1 VL with A51E", "notes": "Fab"}, "B27": {"name": "G6.31 HC-Y58E (Fab, name in Kabat numbering, V domains shown)", "VH": "B1 VH with Y59E, E61A", "VL": "B1 VL", "notes": "Fab"}, "B28": {"name": "G6.31 LC-Y55E (Fab, V domains shown)", "VH": "B1 VH with E61A", "VL": "B1 VL with Y55E", "notes": "Fab"}, "B29": {"name": "G6.31 HC-S74E (Fab, name in Kabat numbering, V domains shown)", "VH": "B1 VH with E61A, S75E", "VL": "B1 VL", "notes": "Fab"}, "B30": {"name": "G6.31 HC-P41E (Fab, name in Kabat numbering, V domains shown)", "VH": "B1 VH with P41E, E61A", "VL": "B1 VL", "notes": "Fab"}, "B31": {"name": "G6.31 HC-S82bE (Fab, name in Kabat numbering, V domains shown)", "VH": "B1 VH with E61A, S85E", "VL": "B1 VL", "notes": "Fab"}, "B32": {"name": "G6.31 LC-P59E (Fab, V domains shown)", "VH": "B1 VH with E61A", "VL": "B1 VL with P59E", "notes": "Fab"}, "B33": {"name": "G6.31 LC-G93E (Fab, V domains shown)", "VH": "B1 VH with E61A", "VL": "B1 VL with G93E", "notes": "Fab"}},
  "note": "Where a chain is given by its changes, count along the chain named.",
  "data": [
    {"target": "T1, human VEGF (hVEGF) (human, UniProt P15692 181-395)", "T1 construct": "also called VEGF-A", "T1 sequence": "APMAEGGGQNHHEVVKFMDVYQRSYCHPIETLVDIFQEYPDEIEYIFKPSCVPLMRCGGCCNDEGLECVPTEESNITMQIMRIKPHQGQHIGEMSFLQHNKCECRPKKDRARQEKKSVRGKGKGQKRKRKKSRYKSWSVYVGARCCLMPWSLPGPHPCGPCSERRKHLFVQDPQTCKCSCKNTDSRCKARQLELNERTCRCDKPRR", "experiment": "SPR single-cycle;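 also: fab variants injected over hVEGF immobilized on a CM5 chip (Biacore T200), threefold dilution series from 0.02 to 50 nM, kinetics fitted with a 1:1 Langmuir model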", "units": {"Fold change (relative to G6.31)": "fold", "Kd": "nM", "koff": "s⁻¹", "kon": "M⁻¹ s⁻¹"}, "description": "To determine the binding affinity of selected Fab variants, SPR measurement with a BIACORE® T200 instrument was used. Briefly, series S sensor chip CM5 was activated with 1-ethyl-3-(3-dimethylaminopropyl) carbodiimide (EDC) and N-hydroxysuccinimide (NHS) reagents according to the supplier's instructions, and human VEGF (hVEGF) was coupled to achieve 50-80 response units (RU), then following by blocking un-reacted groups with 1M ethanolamine.\nThree-fold serial dilutions of Fab in HBS-P buffer (0.01 M HEPES pH 7.4, 0.15 M NaCl, 0.005% surfactant P20) from low (0.02 nM) to high (50 nM) were injected (flow rate: 30 μl/min). The binding responses on hVEGF were corrected by subtracting of RU from a blank flow cell. The sensorgram was recorded and subject to reference and buffer subtraction before evaluating by BIACORE® T200 Evaluation Software (version 2.0). Association rates (kₒₙ) and dissociation rates (koff) were calculated using a simple one-to-one Langmuir binding model. The equilibrium dissociation constant (Kd) was calculated as the ratio koff/kₒₙ.", "values": [
      {"binder": "B1", "Fold change (relative to G6.31)": 1.6, "Kd": 1.08, "koff": 0.000565, "kon": 524000},
      {"binder": "B2", "Fold change (relative to G6.31)": 1.1, "Kd": 1.48, "koff": 0.000379, "kon": 257000},
      {"binder": "B3", "Fold change (relative to G6.31)": 0.9, "Kd": 1.96, "koff": 0.00045, "kon": 230000},
      {"binder": "B4", "Fold change (relative to G6.31)": 1.8, "Kd": 0.97, "koff": 0.000554, "kon": 571000},
      {"binder": "B5", "Fold change (relative to G6.31)": 7.7, "Kd": 0.222, "koff": 0.00045, "kon": "2.03e+06"},
      {"binder": "B6", "Fold change (relative to G6.31)": 3, "Kd": 0.562, "koff": 0.000399, "kon": 711000},
      {"binder": "B7", "Fold change (relative to G6.31)": 2.4, "Kd": 0.715, "koff": 0.000395, "kon": 552000},
      {"binder": "B8", "Fold change (relative to G6.31)": 1.7, "Kd": 0.974, "koff": 0.000418, "kon": 429000},
      {"binder": "B9", "Fold change (relative to G6.31)": 0.2, "Kd": 7.1, "koff": 0.000558, "kon": 78500},
      {"binder": "B10", "Fold change (relative to G6.31)": 0.8, "Kd": 2.05, "koff": 0.00044, "kon": 215000},
      {"binder": "B11", "Fold change (relative to G6.31)": 0.8, "Kd": 2.04, "koff": 0.000444, "kon": 217000},
      {"binder": "B12", "Fold change (relative to G6.31)": 0.9, "Kd": 1.89, "koff": 0.000464, "kon": 245000},
      {"binder": "B13", "Fold change (relative to G6.31)": 1.3, "Kd": 1.27, "koff": 0.000482, "kon": 380000},
      {"binder": "B14", "Fold change (relative to G6.31)": 1.8, "Kd": 0.965, "koff": 0.000699, "kon": 724000},
      {"binder": "B15", "Fold change (relative to G6.31)": 0.9, "Kd": 1.8, "koff": 0.000489, "kon": 271000},
      {"binder": "B16", "Fold change (relative to G6.31)": 4, "Kd": 0.42, "koff": 0.00041, "kon": 975000},
      {"binder": "B17", "Fold change (relative to G6.31)": 0.9, "Kd": 1.93, "koff": 0.000477, "kon": 248000},
      {"binder": "B18", "Fold change (relative to G6.31)": 1.1, "Kd": 1.53, "koff": 0.000446, "kon": 292000},
      {"binder": "B19", "Fold change (relative to G6.31)": 0.8, "Kd": 2.2, "koff": 0.000495, "kon": 225000},
      {"binder": "B20", "Fold change (relative to G6.31)": 0.1, "Kd": 17.9, "koff": 0.000541, "kon": 30300},
      {"binder": "B21", "Fold change (relative to G6.31)": 1.1, "Kd": 1.56, "koff": 0.000472, "kon": 302000},
      {"binder": "B22", "Fold change (relative to G6.31)": 1, "Kd": 1.72, "koff": 0.000467, "kon": 271000},
      {"binder": "B23", "Fold change (relative to G6.31)": 2.2, "Kd": 0.788, "koff": 0.000434, "kon": 550000},
      {"binder": "B24", "Fold change (relative to G6.31)": 3, "Kd": 0.566, "koff": 0.000352, "kon": 621000},
      {"binder": "B25", "Fold change (relative to G6.31)": 1.3, "Kd": 1.29, "koff": 0.000513, "kon": 397000},
      {"binder": "B26", "Fold change (relative to G6.31)": 0.6, "Kd": 2.68, "koff": 0.000462, "kon": 172000},
      {"binder": "B27", "Fold change (relative to G6.31)": 2.7, "Kd": 0.62, "koff": 0.000508, "kon": 820000},
      {"binder": "B28", "Fold change (relative to G6.31)": 0.1, "Kd": 11.7, "koff": 0.000531, "kon": 45300},
      {"binder": "B29", "Fold change (relative to G6.31)": 0.8, "Kd": 2.11, "koff": 0.000499, "kon": 236000},
      {"binder": "B30", "Fold change (relative to G6.31)": 0.5, "Kd": 3.6, "koff": 0.000548, "kon": 152000},
      {"binder": "B31", "Fold change (relative to G6.31)": 1.7, "Kd": 0.991, "koff": 0.000433, "kon": 437000},
      {"binder": "B32", "Fold change (relative to G6.31)": 1.1, "Kd": 1.56, "koff": 0.000444, "kon": 284000},
      {"binder": "B33", "Fold change (relative to G6.31)": 0.3, "Kd": 5.98, "koff": 0.00149, "kon": 248000}
    ]}
  ]
}
